Molecular target: T1, Recombinant Human TNF-α (Strathmann Biotec AG, hTNFa-1000, Lot 090590) (human, UniProt P01375 77-233)
T1 construct: Bought protein; runs at 17.0 kDa on SDS-PAGE; also called cachectin
Assay: ELISA, hybridoma culture supernatant on coated proteins (cross-reactivity test)

T1 sequence (P01375 77-233 limits assumed): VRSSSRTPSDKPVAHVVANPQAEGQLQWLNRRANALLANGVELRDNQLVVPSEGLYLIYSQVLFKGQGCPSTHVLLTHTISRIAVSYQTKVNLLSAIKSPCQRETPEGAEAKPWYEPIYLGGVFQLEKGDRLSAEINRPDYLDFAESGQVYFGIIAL

binding result: binds
B1: ETNF-6 antibody (antibody, V domains shown)
VH: EVQLQQSGPELVKPGASVKISCKASGYSFTAFYMHWVKQSHVKSLEWIGRINPYNGATSYNQNFKAKASLTVDKSSSTAYMELHSLTSEDSAVYYCARSEDWDKTMDYWGQGTSVTVS
VL: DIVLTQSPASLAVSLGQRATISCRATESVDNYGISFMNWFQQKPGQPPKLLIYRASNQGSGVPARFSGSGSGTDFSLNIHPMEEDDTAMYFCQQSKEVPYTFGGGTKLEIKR
notes: Mouse monoclonal antibody, tested as hybridoma culture supernatant; also called ETNF 6 monoclonal antibody
